We go through one molecule from PMC4630568, “Arabidopsis LEAFY COTYLEDON1 controls cell fate determination during post-embryonic development” (Frontiers in Plant Science, 2015).

This assay concerns the target T1, His-LEC1 (LEAFY COTYLEDON1) (Arabidopsis, UniProt Q9SFD8 1-238).
T1 construct: LEAFY COTYLEDON1 (LEC1), NF-Y transcription factor, Arabidopsis, AT1G21970; Vector pQE30; source: E. coli Rosetta DE3, purified (Ni-nitrilotriacetic acid agarose beads)
T1 sequence (looked up): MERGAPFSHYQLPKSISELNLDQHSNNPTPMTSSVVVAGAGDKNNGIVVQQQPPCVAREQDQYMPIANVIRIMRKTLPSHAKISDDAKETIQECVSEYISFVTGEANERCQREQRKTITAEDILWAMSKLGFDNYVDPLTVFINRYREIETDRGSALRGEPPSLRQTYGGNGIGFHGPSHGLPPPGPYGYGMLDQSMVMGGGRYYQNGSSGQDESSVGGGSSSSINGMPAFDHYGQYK
In words: pull-down; 2 μg of His-LEC1 or His-GFP incubated with immobilized GST or GST fusion proteins; 50 mM Tris-HCl pH 8.0, 100 mM NaCl, 1 mM EDTA; 4°C, 4 h; detected with an anti-His antibody. To be noted: both partners purified.

B1: GST-TCL2 (TRICHOMELESS2) (natural protein, Arabidopsis, UniProt B3H4X8 1-100, looked up)
chain: MDNTNRLRHLRSRKQSKFTLGDTAEVNSVKWEFINMTEQEEDLIFRMHRLVGDRWDLIAGRVVGREAKDIERYWIMRNCDHCSHKRRRVHKFYRFSISPP
notes: TCL2, single-repeat R3 MYB protein, Arabidopsis, AT2G30424; Vector pGEX-4T-1; source: E. coli Rosetta DE3, purified (glutathione sepharose beads)
For the molecule B1, the binding result is listed as “binds”.
